Measured values as given in publication doi:10.1101/2024.10.22.619416 (bioRxiv, 2024).
Changes are numbered by the printed parent chain.

B1: alpaca nanobody 3-2A2-4 (VHH)
VHH: QVQLQESGGGLVQPGESLRLSCAASGSISTLNVMGWYRQAPGKQRELVAQITLDGSPEYADSVKGRFTITKDGAQSTLYLQMNNLKPEDTAVYFCKLENGGFFYYWGQGTQVTVST
B2: humanized antibody hAb1.1 (antibody, V domains shown)
VH: QVQLQESGPGLVKPSETLSLTCSVSGFSLINYAISWIRQPPGKGLEWIGVIWTGGGTNYNSALKSRLTISRDTSKNQVFLKMNSVTAADTAVYYCARKDYYGRYYGMDYWGQGTLVTVSS
VL: QAVVTQEPSLTVSPGGTVTLTCRSSTGAVTTSNYANWLQQKPGQAPRGLIGGTNNRAPGVPPRFSGSILGDKAALTLSGAQSEDEADYYCALWYNNHWVFGGGTKLTVL
B3: humanized antibody hAb1.4 (antibody, V domains shown)
VH: B2 VH with S23T, I37V, P40A, R71V, N76S, F79S, K81R, M82L, N83S
VL: B2 VL with L38F, P62A, D71G, S82P
B4: humanized antibody hAb1.2 (antibody, V domains shown)
VH: B2 VH with S23T, P40A, N76S, M82L
VL: B2 VL with L38F, G59W, P62D, I68L, D71G, S82P
B5: humanized antibody hAb1.5 (antibody, V domains shown)
VH: B2 VH with S23T, P40A, R71V, N76S, V78F, F79S, M82L, N83S
VL: B2 VL with L38F, K41R, A45P, P62A, D71G, S82P
B6: humanized nanobody hNb1.1 (VHH)
VHH: EVQLVESGGGLVQPGGSLRLSCAASGSISTLNVMGWFRQAPGKGREWVAAITLDGSPYYADSVKGRFTISRDNAKNTLYLQMNSLRPEDTAVYYCKLENGGFFYYWGQGTQVTVSS
B7: humanized nanobody hNb1.3 (VHH)
VHH: B6 VHH with G35S, F37V, R45L, A49S, A50S, Y58N, A74S, P87V, Q111L
B8: humanized nanobody hNb1.5 (VHH)
VHH: B6 VHH with F37Y, G44Q, W47L, A50Q, Y58E, A74S, R86K
B9: humanized nanobody hNb1.4 (VHH)
VHH: B6 VHH with F37Y, G44Q, W47L, A50Q, Y58E, P87A
B10: humanized nanobody hNb1.2 (VHH)
VHH: B6 VHH with G35S, F37V, R45L, A49S, A50S, A74S, P87V, Q111L

Target: SARS-CoV-2 (2019-nCoV) Spike RBD protein (SARS-CoV-2 (2019-nCoV), ancestral …, UniProt P0DTC2)
Experiment: BLI

Binder | Kd
B1 | 5.47 nM
B2 | 0.27 nM
B3 | 1.03 nM
B4 | 0.15 nM
B5 | 6.37 nM
B6 | 2.52 nM
B7 | 58.2 nM
B8 | 7.4 nM
B9 | 5.83 nM
B10 | 45.7 nM
